# Source: the domain aggregation screens of Martell et al. (2025)
# Experiment: soluble fraction after stress (log2 fold change); higher = more stays soluble; pooled small domains, quantitative proteomics
# Settings: stress: 75 degC
# 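Further: 20 min heating vs room temperature control held 20 min.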
row,Sequence,soluble fraction (log2)
1,HMNNKVAVKSGYYFELFDKDEIPATLEKMKQKVKIDNIKYDLYQGTSLEDERKIDTMFGEKMGYSIDDYI,-0.0968
2,HMNNLVTRREVEILGWIKEGKTTSDIAGILSLSPFTVKNHVQNILKKLGARSRSHAVAQAINLGLLH,-1.4
3,HMNNPISMQKLRQVIRLYGQGKGTKSINSMLGVSRNTIKKYLQVYHSSGINYESFLAMSDKELSAVFLV,-0.509
4,HMNNQVTFSKFLNEVEDGRVVEVNIQGNNITGVLSDGSKFKTFSPNYPNLVEKLSEKGVSINASPL,0.0934
5,HMNNTIKFSVDENNSGKRLDVYLTENINHLTRSFLKKLIEKEQVKLNKKVLTSPATKVKTKDQITINIIE,0.0625
6,HMNNWYESSIKSLVEEYFREHGFSVVFDSSEFWDVFIEKYHKQIPSSQIALFDQVAAEARSYAFNKK,-0.0798
7,HMNPETLTNGSVVKMSKANLSDELIIDMINNSPARFDLSSGALRSLEGEGVSKAVIESMKRATSG,0.283
8,HMNPETLTNSSVIKMSKANLSDELITDMILNSPVKFDLSAGAIKTLESEGVTPAVLESMKNAASK,0.131
9,HMNPFTHEEINLMSIYNAAGTREGLIAALTEMWGYLDAEETELRELADSALAKLRGITDAEYAALELE,-1.19
10,HMNPGAYQVKAGEGLIGLSRRYNVPVDVLASVNNLNTTSSLRVGQTITIPTAAQVNRITQQAQ,0.216
11,HMNPGHAERGKEIVEVFLRNNGELSMREIAEKSNITITQARRRVNKLLDQGIVEATAPVQSRNRKYRIK,0.186
12,HMNPIEAQIEELKNKDQKTAYQALKHLLAISETRAEVSYYFDRFVALLQDPQSYVRTRGLLLIGA,0.584
13,HMNPLLSAYLAEVERGLQGLTAGRRRLVLRELEAHLLDEAEARGLLTEEDMRALLMEKEPPERLAQEIAQ,-0.253
14,HMNPMLEPAGEIRLSDGVLLRWQSERLPGDDTVRGPGSLYELGLYRVKVRVSAPQQGVRESSVELAGWRQV,-0.0501
15,HMNPMRYLVVPSQETETWKEYLVSKEWLERKYRIETEGDNRAIPLSNLFPKIVPIELSNLEIIEKEAFS,-0.694
16,HMNPNEVQIPDLVNKTEDEAEQILKDLKLKLVVKSEEYNENIEKGKIISQDPPYQENYTIKEHSEISIVIS,0.335
17,HMNPSRPASKEELLGLFEHLERALDAVTFFRPAEKKPVVVQTLRAMLTKASFTEQDIRTMRGVIAALEN,-1.59
18,HMNPYQDSILLWKSFDTPLTNEDFMGLSKEELRIARNEIYAAYGRIFTSQDLIDYFNSKPWYQGTTPA,-0.313
19,HMNQDQDLSRIKGIGPEMVDRLHAQGVETLEQIAAMQMEQLKKLDQQISGNGKAVREQWAEQAKQLLTT,0.099
20,HMNQEFRMPNAIKGVELSEENKQQLTQGEKVFLEGMTSAKGSLFDAYVYIDQEKKTLAFDFPEK,0.0813
21,HMNQKTQMTKQILAESLKKLMLHHSFEKITIKDITDAAGFIRPTFYNHFKDKYDLVEWIFTEEI,-0.287
22,HMNQKVRQLLSQAQAEMERKNYKQAIKLLDQALAIEPHSGELHFMKGYAWMSMGEFEKALESLYEARNYA,-1.4
23,HMNQPRQRKVIFELIDERNALERVLMHFAHLEKQVEKIDERKYQVTLYYDKEDETEILIRVLSFG,-2.01
24,HMNQTEKSKITHNELLKAAHSLFIEQGFNHTTITDIVTRAGYSTGIFYKHYKTKTDILVELWTNYIE,-2.27
25,HMNQWQLLSEDGAILGTRVLYHPHETEQPFTRSLSGVKIPAHVQSVTIRAGDLVHGFGGREIQMQLPPIV,-0.0313
26,HMNREENIQIGRDLLERELRKQGMDLQENLRQEVLLDGAKKLGFNNTDDLLAAIGDLKVTPAMFIGKIA,0.0484

row,Sequence,soluble fraction (log2)
1,HMNREMLVHAIGQLKEKYASALELKYWHGFTEREIAAFLNISEKAANSRLVRGRVMLRKLLE,0.0264
2,HMNREYELTAEESGQRLDKYLAGEMTDLSRSRIKELVQAGEILVNGKKSKVSYKVQKDDLIQVIVLPLE,-0.402
3,HMNRITEFVVPEGTKKIRADKLLAESFPDHSRSDFHRAFDASLVRLEGQPISKNRKISQGDVLVFEMPEI,0.505
4,HMNRPQDLGEPYDGQFREHPEAWAFYAAQSPSYRRSASWWVLGAKQEVTRQRRLAALIDASAQGTRIPALT,-1.8
5,HMNRREFQFSEGSSNKFWSIELRDQSFIVHYGKIGTNGQAQEKTFATADAAKKEHDKLIAEKTKKGYVEVQ,-0.34
6,HMNRTKYYDFEGHPAKVVRLTLPVYLNKIGDEVVVYDSQKFAREASPISESQYNRMVAEIFQP,-0.233
7,HMNSEAVQNVIDKISALPDDITAKAKSQIEEARAAYEALSDSEKARVTNYSTLVAAEKKLASVVKD,0.558
8,HMNSEERVLDTASKWLVKLDEGLDESEAQVLKVWLATPLHRDTFLEMVALWDKMSVLNELADIV,-1.65
9,HMNSISDSELKALIKNNYLKFLKRIASDEEIEYHFNQIKNKTILLDELDSIFQNSQEYKDLVEHNNKIQN,-0.268
10,HMNSKQELAYQTIRARIVDGSYGPGYRIVIDEVARELGVSPIPVREAVRRLEAEGLITYTRHAGARVVA,-0.219
11,HMNSLQLGSRGPTVSALQAKLNTMLVPSPRLVADGSFGPKTAQAVKAFQQMKRLVADGVVGPKTAAALGLS,-0.156
12,HMNSLQNNLKQARTRVGLTQGVLASQAGISRQAYSTLESGSANPSTEVALRLAQALQERVELLFYLPER,-0.948
13,HMNSNKFANAAAVAVAEKPADSYNPLFIYGPSGVGKTHLLYAIANEIHKHHPDYNIVYIKGDQFTNELIN,0.088
14,HMNSNLSLTSYEEKIFFLLEKEKNLDELILESSFKAGEILSILMDLEIKHAIVSIPGGKYRRK,-3.85
15,HMNSNQESFENWLSANSWYNKDRAMRVFADSLGQELRNSGVSFEKALTQISAEVRKEFSHKFQ,-0.491
16,HMNSNSLSFSKFMQEVEAGRVIEVQIKGNDIQGELSDGSKFKTYSPNYPNLVDKLSENKVSIVATPL,-0.0878
17,HMNSNTIIFSQFLSEVDNGRVTQVQIQGNNIKGTLSNGKDFITYAPNDPNLIEKLTSKGVSISASPID,0.0526
18,HMNSNTIIINDIMTKIGKEVKNFTEIYSIILKALAEHGEEYVRTNTEYALKNFTGNFDIFLEQLLLK,-0.207
19,HMNSRAERKEAAKEAIRNLLREGMTFEELTGPWLEKRFAEEPFNRGARSWQMLISEIKEEPEFQHL,-0.014
20,HMNSRQPEEEALFELLAKNPYSDEQLEEIRIAIGSGISYKDVLVIADIKNTAKQMKKLRLKFTKDTG,-0.561
21,HMNSTEQQTERFLATLTSLGGNAGNQRLQEALGWQGSTYQRIKQHLLDEGRIRTGRGRGGSVALSEATAT,0.0863
22,HMNSTGVYQRPDGFWEYRFTLSINGKKLPRRKSTDLMGNKLKTKREAIKAREEAIIALRTEKTI,-1.42
23,HMNSTVKVPNVVGMSVPQAKALLEQNHLLVQGIREVSTDKAPAGIVINQLPYSDAEVKEERHIYLTVSKGK,0.968
24,HMNSVKSPMPGTILGLKVSVGDTVKVGDELLVLESMKMENMINSPIDGTVSKILISEGDSVQHGQELII,0.238
25,HMNSVSARRSAAITAISTGRIHSQEDLVQALKKAGYPVTQATASRDIEEIGAVRIRNQKGEMVYAIS,0.208
26,HMNTEEITYSRFQQMLEAGEISQVSIESNRILILPSEETGIEKVLYTGIINDPGLVERLNSAGVEFRAPIE,-0.31

row,Sequence,soluble fraction (log2)
1,HMNTEFDVPDVVGKTLDEAEFVLKGSNLKRGLIMPVDDPSKAPGTIVRQNPEAGAGNKIRVGDVVDLWVVG,0.271
2,HMNTELSPKVWDVVQEFILYRKEIKAPMTEHAVKLLIGQLQKLSSDPDEQIEILRQSIVNGWKGIFSLK,-1.2
3,HMNTGTTISYSDFRDRVASGTVKEVQISDDRITGVLKNDETFNTVPVGNDSGLTKLLDDNGVTYSGTP,0.299
4,HMNTIFSVNGPVVKVKDTKDFSMMEMVYVGEKKLIGEVIGITESFTTIQVYEVTTGLKVGEPVYTTGAPM,-0.361
5,HMNTIIHPIRLAYVDSGSIKSMAEQAEIDVKILTSEANSQIFWAIGDEKQIDRLYNLISQVDIIQNK,-1.86
6,HMNTKHVFIIEQDDEKKRLDIFLVEKLQDSRSFLKKGIVEGWVKVNESVVKPNYKLKQKDQITVIIPP,-1.47
7,HMNTNDFTIGTRVRTTKKGNGSSDGTSNTARSGIEGTITRIIPEAKYPYLVSTTVPMGWYKKDALEK,0.00349
8,HMNTPLYLKIREQIFDALRSGRWAANDPLPSETKLASEFEVSQGTIRKAIDDLVAQNILYRHQGRGTFIRR,-1.21
9,HMNTSSVTVHYQDEAGKSLADTVTLTGKVGETYSSEQKKITGYNFKEVRGNPKGQFTTEAQTVTYVYTQAA,0.211
10,HMNTWVEIFRAEDQGQIRDASLVLLAVKVAHRVDMNSSSAPWSLMVPAQDQQRAHHELTTYWQENAH,-2.03
11,HMNVAELIEGHEAEIAEVLKEFSLLYLMRLADELGEMTKSSSGNGPFQVLKGLVYEEIARRG,-1.65
12,HMNVAVPTPADKRKVRVMKADINAKLRVNDANGAYAVYEELKEWVTLKGFTEWNDDLSKLSETMGSMKRKV,-0.601
13,HMNVDALVGQRGRVTQTFDPGLRLGRVAVGGDDWRAETTTDQPLREGDLVEVVSVESNTLIVRPIA,0.0567
14,HMNVDSLIGQTARVIVDINNNDSIGYALVGGQEWTARAENDNDIIPKDTLVEIVGVSGVKLIVRRKE,0.0563
15,HMNVDSLVGSEARVTAEIDNRKETGTAMVNGQEWTARAESDEEIYPVGTIVEIRKIQGVKLIVSTH,-0.394
16,HMNVEATAETLLALLKKNGGSLPFGDKSDPEAIQSQLKMSKKTFKKAAGTLFKKKLVRIEDHGIFL,-2.02
17,HMNVEGEVVVPNVIGRTMKDVAVILSDLGLRMEAEGTGVAKSSQPQHGTSVKRGTVVQVRFEPLSVN,0.648
18,HMNVEKLREMYPEGTKIILQEMQGESRMAKGLKGTVTHVDDAGQIHMKWENGSSLVLNVEVDTFKKIE,0.0771
19,HMNVEVDSIGDDDFLVKVSAGTSTEHRVTLTDAYWEQIWSSSLPKKEIISLSFAFLLEREPNSSIMRT,0.161
20,HMNVNALIGQEGIVIKEINSGSNKIGQVKISGDTWSAVTTNDFTNAIPVGSNVKILKIDGVNLIVEPVY,-0.255
21,HMNVNVSFTQLRHKAEHAIQAKNWSEARNLLTLATLMRPTHRNVARRLKAVEQRNRLFRRLLLILTHRKV,-0.429
22,HMNVPFGFDEVNGKLVKNEEEQAIISEIKSLKNKGLSLRKIAEALNGRGIATKNGKAWTAVQIQRIA,-0.318
23,HMNVPLYIMIESAVEQRLLDGTYQVGKMIPTEFELMDEFSVSRETVRKAINLLVQRGKLEKKRGIGTFVAS,-3.28
24,HMNVSDIENKLNEMLSPLEKKVMVLYLEGKSYVEIGELLGRHTKSVDNALQRVKRKLEIYLKNRK,-2.62
